# Laboratory results as given in patent US20260242478A1 (published 2026).
# Where no end group is shown, it is not given here.
# B1: Phage-2191 (peptide)
# peptide: VDNWCVPRWMCDGF
# notes: tested as crude clonal phage supernatant
# B2: Phage-2283 (peptide)
# peptide: GGKWCKPSWMCFGM
# notes: as for B1
# B3: Phage-2186 (peptide)
# peptide: EFKWCIPAWMCTAA
# notes: as for B1
# B4: Phage-2185 (peptide)
# peptide: WSKSCTPAWMCEGF
# notes: as for B1
# B5: Phage-2190 (peptide)
# peptide: EHHWCIPKWMCNEV
# notes: as for B1
# B6: Phage-2188 (peptide)
# peptide: LSHWCSPQWMCSGF
# notes: as for B1
# B7: Phage-2284 (peptide)
# peptide: MINWCTPAWMCTGF
# notes: as for B1
# B8: Phage-2285 (peptide)
# peptide: EPKWCIPQWMCERF
# notes: as for B1
# B9: Phage-2187 (peptide)
# peptide: EIKWCTPAWMCEGF
# notes: as for B1
# B10: Phage-2189 (peptide)
# peptide: WYKWCTPAWMCEFT
# notes: as for B1
# Key:
# [1] = molecular target: T1, Anti-PSMA Fab (SEQ ID NOs: 19, 20); assay: phage binding ELISA; Fab-coated wells pre-incubated with PSMA antigen as competitor
# T1 construct: Biotinylated and captured on neutravidin coated plates in the phage ELISA; also called 006 PSMA Fab
# Method: (§1) Clonal phage were harvested as crude supernatants and screened via standard ELISAs. […] Prior to the addition of clonal phage. wells were incubated with blocking buffer and PSMA antigen or blocking buffer alone. Without washing or aspirating, clonal phage supernatants were then added to the wells and incubated for a short time. Wells were then washed followed by detection of bound phage using a horse radish conjugated anti-M13 antibody.
# [2] = molecular target: T1, Anti-PSMA Fab (SEQ ID NOs: 19, 20); assay: phage binding ELISA; biotinylated Fab on neutravidin plate, clonal phage detected with anti-M13 HRP
# Method: as §1
# [3] = molecular target: T2, Anti-PSMA Fab (SEQ ID NOs: 19, 20); assay: phage binding ELISA; biotinylated PSMA Fab on neutravidin plate, clonal phage detected with anti-M13-HRP
# T2 construct: Biotinylated and captured on neutravidin coated plates in the phage ELISA; also called 006 PSMA Fab
# Method: as §1
# [4] = molecular target: T2, Anti-PSMA Fab (SEQ ID NOs: 19, 20); assay: phage binding ELISA; Fab-coated wells pre-incubated with PSMA antigen as competitor, anti-M13-HRP detection;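 note: clonal phage supernatants screened, with reference wells given blocking buffer only (no PSMA antigen) before phage were added for a brief incubation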
# Method: as §1
# [5] = molecular target: T3, Anti-PSMA Fab (SEQ ID NOs: 19, 20); assay: phage binding ELISA; clonal phage on plate-captured biotinylated PSMA Fab, anti-M13 HRP detection
# T3 construct: Biotinylated and captured on neutravidin coated plates in the phage ELISA; also called 006 PSMA Fab
# Method: as §1
# [6] = molecular target: T3, Anti-PSMA Fab (SEQ ID NOs: 19, 20); assay: phage binding ELISA; plate-captured PSMA Fab pre-incubated with PSMA antigen as competitor, anti-M13 HRP detection
# Method: as §1
# [7] = molecular target: T4, Anti-PSMA Fab (SEQ ID NOs: 19, 20); assay: phage binding ELISA; PSMA Fab on plate pre-incubated with PSMA antigen as competitor, anti-M13 HRP detection;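 note: crude clonal phage supernatants added without washing to wells preincubated with PSMA in blocking buffer, compared with wells receiving blocking buffer only, then bound phage detected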
# T4 construct: also called 006 PSMA Fab
# Method: as §1
# [8] = molecular target: T4, Anti-PSMA Fab (SEQ ID NOs: 19, 20); assay: phage binding ELISA; biotinylated PSMA Fab on neutravidin plate, clonal phage supernatant, anti-M13 HRP detection;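 note: wells were preincubated with blocking buffer either containing PSMA antigen or without it before crude phage supernatant was added, briefly incubated, then washed prior to detection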
# Method: as §1
Binder,Anti-PSMA Fab signal in the presence of PSMA [1],"Anti-PSMA Fab (SEQ ID NOs: 19, 20) signal [2]",Anti-PSMA Fab signal in the presence of PSMA [7],"Anti-PSMA Fab (SEQ ID NOs: 19, 20) signal [8]",also measured
IPRMCTPAWMCEWS [Phage-2279],0.0738,1.51,–,–,–
LEKWCTPPWMCMGF [Phage-2276],0.0948,1.52,–,–,–
B1,–,–,–,–,"Anti-PSMA Fab (SEQ ID NOs: 19, 20) signal [3]: 1.63; Anti-PSMA Fab signal in the presence of PSMA [4]: 0.0922"
B2,–,–,–,–,"Anti-PSMA Fab (SEQ ID NOs: 19, 20) signal [5]: 1.51; Anti-PSMA Fab signal in the presence of PSMA [6]: 0.108"
GDRWCIPEWMCGVI [Phage-2265],–,–,0.0664,1.54,–
NERWCIPSWMCQEA [Phage-2253],–,–,0.0574,1.55,–
DMRWCIPAWMCEDR [Phage-2259],–,–,0.0623,1.54,–
PVNWCKPPWMCEMW [Phage-2256],–,–,0.087,1.54,–
AVKLCTPMWMCMGF [Phage-2282],0.0984,1.51,–,–,–
B3,–,–,–,–,"Anti-PSMA Fab (SEQ ID NOs: 19, 20) signal [3]: 1.63; Anti-PSMA Fab signal in the presence of PSMA [4]: 0.0998"
"MEMWCRPAWMCAHS (cysteine pairing not given here; also: displayed on phage, fused to pIII) [Phage-2257]",–,–,0.0767,1.54,–
WDMRCTPIWMCEGF [Phage-2272],0.0882,1.52,–,–,–
IEKWCIPQWMCSAA [Phage-2278],0.0739,1.52,–,–,–
FAILCKPMWMCEHI [Phage-2280],0.0895,1.51,–,–,–
HQNWCIPAWMCHGM [Phage-2271],0.0592,1.53,–,–,–
B4,–,–,–,–,"Anti-PSMA Fab (SEQ ID NOs: 19, 20) signal [3]: 1.63; Anti-PSMA Fab signal in the presence of PSMA [4]: 0.0843"
ITKLCTPPWMCTMV [Phage-2267],–,–,0.0558,1.53,–
YTNWCIPSWMCEGF [Phage-2274],0.0789,1.52,–,–,–
B5,–,–,–,–,"Anti-PSMA Fab (SEQ ID NOs: 19, 20) signal [3]: 1.63; Anti-PSMA Fab signal in the presence of PSMA [4]: 0.0711"
VELLCKPPWMCSGL [Phage-2255],–,–,0.0931,1.54,–

Binder,Anti-PSMA Fab signal in the presence of PSMA [1],"Anti-PSMA Fab (SEQ ID NOs: 19, 20) signal [2]",Anti-PSMA Fab signal in the presence of PSMA [7],"Anti-PSMA Fab (SEQ ID NOs: 19, 20) signal [8]",also measured
MPKWCIPTWMCEST [Phage-2281],0.054,1.51,–,–,–
VDRWCIPEWMCNEL [Phage-2260],–,–,0.084,1.54,–
GINWCIPPWMCQSE [Phage-2273],0.119,1.52,–,–,–
B6,–,–,–,–,"Anti-PSMA Fab (SEQ ID NOs: 19, 20) signal [3]: 1.63; Anti-PSMA Fab signal in the presence of PSMA [4]: 0.0932"
B7,–,–,–,–,"Anti-PSMA Fab (SEQ ID NOs: 19, 20) signal [5]: 1.51; Anti-PSMA Fab signal in the presence of PSMA [6]: 0.101"
PNIWCTPLWMCEGL [Phage-2262],–,–,0.0772,1.54,–
"MMKWCTPEWMCAMV (cysteine pairing not given here; also: displayed on phage, fused to pIII) [Phage-2258]",–,–,0.0753,1.54,–
ALKWCIPDWMCSQP [Phage-2264],–,–,0.0749,1.54,–
FAKWCTPQWMCSAM [Phage-2269],0.225,1.53,–,–,–
GEKWCIPSWMCEIT [Phage-2275],0.0796,1.52,–,–,–
B8,–,–,–,–,"Anti-PSMA Fab (SEQ ID NOs: 19, 20) signal [5]: 1.51; Anti-PSMA Fab signal in the presence of PSMA [6]: 0.0654"
AENWCRPSWMCEGF [Phage-2268],0.0717,1.53,–,–,–
B9,–,–,–,–,"Anti-PSMA Fab (SEQ ID NOs: 19, 20) signal [3]: 1.63; Anti-PSMA Fab signal in the presence of PSMA [4]: 0.0762"
YSHLCIPSWMCSWT [Phage-2263],–,–,0.111,1.54,–
TEKWCIPAWMCQVS [Phage-2261],–,–,0.0738,1.54,–
VVKWCSPPWMCEYF [Phage-2270],0.0886,1.53,–,–,–
B10,–,–,–,–,"Anti-PSMA Fab (SEQ ID NOs: 19, 20) signal [3]: 1.63; Anti-PSMA Fab signal in the presence of PSMA [4]: 0.145"
EMHWCIPAWMCPDG [Phage-2266],–,–,0.0572,1.54,–
IIKWCKPLWMCESI [Phage-2277],0.104,1.52,–,–,–
PAKWCIPMWMCQVD [Phage-2254],–,–,0.0779,1.55,–
